# Patent US20080045469A1 (published 2008)
# T1: human VEGF165 expressed in transduced LLC cells (human), P15692
# T1 chain: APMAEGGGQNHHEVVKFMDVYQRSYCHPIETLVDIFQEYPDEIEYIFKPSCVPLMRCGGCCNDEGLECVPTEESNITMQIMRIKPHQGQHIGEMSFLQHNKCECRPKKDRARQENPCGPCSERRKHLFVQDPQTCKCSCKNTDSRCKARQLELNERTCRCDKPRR
# B1: human VEGF165 expressed in transduced LLC cells, P15692 27-191 (ligand, UniProt P15692-4 27-191, looked up)
# chain: T1 chain
# B2: human PLGF-1 with C-terminal KDEL ER-retention signal (ligand)
# chain: LPAVPPQQWALSAGNGSSEVEVVPFQEVWGRSYCRALERLVDVVSEYPSEVEHMFSPSCVSLLRCTGCCGDENLHCVPVETANVTMQLLKIRSGDRPSYVELTFSQHVRCECRPLREKMKPERCGDAVPRRKDEL
# notes: Expressed in transduced LLC cells; also called hPLGF-1-KDEL; PLGF-1-KDEL
# B3: recombinant human PLGF-1 monomer (E. coli) (ligand)
# chain: LPAVPPQQWALSAGNGSSEVEVVPFQEVWGRSYCRALERLVDVVSEYPSEVEHMFSPSCVSLLRCTGCCGDENLHCVPVETANVTMQLLKIRSGDRPSYVELTFSQHVRCECRPLREKMKPERCGDAVPRR
# Key:
# [1] = molecular target: T1, human VEGF165 expressed in transduced …; test: sandwich ELISA of conditioned medium of hVEGF-LLC cells, homodimer format; conditions: remark: other sources report otherwise
# [2] = molecular target: the molecule itself; test: sandwich ELISA of cell lysates and conditioned media of hPLGF-1-KDEL-LLC cells
# Source text: To quantify the amounts of intracellular and extracellular dimeric molecules, a sensitive sandwich ELISA assay was used to analyze cell lysates and conditioned media from transduced and non-transduced LLC cell lines. Specific antibodies were used against each factor, either two antibodies against the same factor but raised in different species (homodimers) or two antibodies against different factors (heterodimers). As expected, a high level of mVEGF homodimers was detected in conditioned media from controls, wt LLC and vector-transduced LLC cells (Table 1).
# [3] = molecular target: recombinant human VEGF165 monomer (E. coli) (human, UniProt P15692-4 27-191); test: in vitro reduction and refolding of E. coli proteins
# Description: Recombinant human PLGF-1 (SEQ ID NO: 1) and VEGF₁ monomers were expressed in E. Coli as previously described⁴⁴. An equimolar of mixture of PLGF-1- and VEGF₁ homodimers, at a total protein concentration of 0.5 mg/ml, was incubated in reducing buffer (20 mM Tris-HC1, pH 8.0, 6 M guanidine-HC1, and 10 mM DTT) at 4° C. over night. The following day the protein solution was dialyzed against 10 volumes of refolding buffer (2 M urea, 20 mM Tris-HC1, pH 8.0, 2 mM GSH (glutathione-SH) and 0.5 mM GSSG (glutathione-S-S-glutathione)). Using this refolding protocol, a mixture of homodimeric PLGF-1 and VEGF₁ as well as heterodimeric PLGF-1/VEGF was generated.
binder,measurement,setting,value
B1,homodimer concentration in conditioned medium,[1],41900 pg/mL
B2,binding result,[2],binds
B3,binding result,[3],binds
